Results from patent publication US9457043B2, “Combination therapy using c-Met inhibitor and c-Myc inhibitor” (Samsung Electronics Co., Ltd., priority 2013, dated 2016).

B1: L3-1Y/IgG2: anti-c-Met antibody: huAbF46-H4-A1 heavy chain variable region, human IgG2 hinge and constant region, kappa light chain with tyrosine at position 36 (antibody)
heavy: EVQLVESGGGLVQPGGSLRLSCAASGFTFTDYYMSWVRQAPGKGLEWLGFIRNKANGYTTEYSASVKGRFTISRDNSKNTLYLQMNSLRAEDTAVYYCARDNWFAYWGQGTLVTVSSASTKGPSVFPLAPCSRSTSESTAALGCLVKDYFPEPVTVSWNSGALTSGVHTFPAVLQSSGLYSLSSVVTVPSSNFGTQTYTCNVDHKPSNTKVDKTVERKCCVECPPCPAPPVAGPSVFLFPPKPKDTLMISRTPEVTCVVVDVSHEDPEVQFNWYVDGVEVHNAKTKPREEQFNSTFRVVSVLTVVHQDWLNGKEYKCKVSNKGLPAPIEKTISKTKGQPREPQVYTLPPSREEMTKNQVSLTCLVKGFYPSDIAVEWESNGQPENNYKTTPPMLDSDGSFFLYSKLTVDKSRWQQGNVFSCSVMHEALHNHYTQKSLSLSPGK
light: DIQMTQSPSSLSASVGDRVTITCKSSQSLLASGNQNNYLAWYQQKPGKAPKMLIIWASTRVSGVPSRFSGSGSGTDFTLTISSLQPEDFATYYCQQSYSRPYTFGQGTKVEIKRTVAAPSVFIFPPSDEQLKSGTASVVCLLNNFYPREAKVQWKVDNALQSGNSQESVTEQDSKDSTYSLSSTLTLSKADYEKHKVYACEVTHQGLSSPVTKSFNRGEC
B2: scFv of huAbF46: VH-linker-VL single-chain Fv of huAbF46 with linker SEQ ID NO: 54 (protein)
scFv: EVQLVESGGGLVQPGGSLRLSCAASGFTFTDYYMSWVRQAPGKGLEWLGFIRNKANGYTTEYSASVKGRFTISRDNSKNTLYLQMNSLRAEDTAVYYCARDNWFAYWGQGTLVTVSSGLGGLGGGGSGGGGSGGSSGVGSDIQMTQSPSSLSASVGDRVTITCKSSQSLLASGNQNNYLAWHQQKPGKAPKMLIIWASTRVSGVPSRFSGSGSGTDFTLTISSLQPEDFATYYCQQSYSAPLTFGQGTKVEIKR

How the values were obtained:
[1] = test system: HCC1954 cells; experiment: Cell proliferation (CellTiter Glo) in HCC1954 breast cancer cells; assay type: cell-based; conditions: L3-1Y/IgG2 0-2 μg/ml, 72 hours after antibody treatment, siRNA reverse transfected 24 hours before, FIG. 1
Excerpt: To confirm the effect of co-administration in a breast cancer cell on which an anti-c-Met antibody has no effect when administered alone, HCC1954 (ATCC, CRL 2338) cells were used for assaying the effect of co-administration on cell proliferation.
In particular, a mixture of c-Myc siRNAs (sic-Myc; mixture of siRNA pools wherein 5′-[…]-3′ (SEQ ID NO: 119), 5′-[…]-3′ (SEQ ID NO: 120), 5′-[…]-3′ (SEQ ID NO: 121), and 5′-[…]-3′ (SEQ ID NO: 122) are mixed at the molar ratio of 1:1:1:1) was reverse transfected to HCC1954 cells and the transfected cells were incubated in 96-well plate at the amount of 5000 cells/well (medium: 10% FBS in RPMI 1640 (GIBCO), incubation temperature: 37° C.). The reverse transfection was conducted using lipofectamine RNAi max (invitrogen). The reverse transfection was conducted by pre-incubating 10˜20 uM of siRNA diluted in opti-MEM (Gibco) and lipofectamine RNAi max diluted in opti-MEM (Gibco) at room temperature for 15 minutes, and then mixing with 5000 cells/well of the incubated cells, to allow reverse transfection. 24 hours after, the prepared cells were treated with L3-1Y/IgG2. […] The number of the cells was counted through luminescence signal, and the luminescence signal was recorded using Envision 2104 Multi-label Reader (Perkin Elmer). […]

[2] = test system: HT-29 cells; experiment: Cell proliferation (CellTiter Glo) in HT-29 colon cancer cells; assay type: cell-based; conditions: L3-1Y/IgG2 0-2 μg/ml, 72 hours, FIG. 2
Excerpt: (§1) To confirm the effect of co-administration in a colon cancer cell on which an anti-c-Met antibody has no effect when administered alone, HT-29 (ATCC, HTB-38), Ls174T (ATCC, CCL-188), SW620 (ATCC, CCL-227), and LoVo (ATCC, CCL-229) cells were used for assaying the effect of co-administration on cell proliferation.
(§2) In particular, a mixture of c-Myc siRNAs (sic-Myc; mixture of siRNA pools wherein 5′-[…]-3′ (SEQ ID NO: 119), 5′-[…]-3′ (SEQ ID NO: 120), 5′-[…]-3′ (SEQ ID NO: 121), and 5′-[…]-3′ (SEQ ID NO: 122) are mixed at the molar ratio of 1:1:1:1) was reverse transfected to each of HT-29, Ls174T, SW620, and LoVo cells and each transfected cells were incubated in 96-well plate at the amount of 5000 cells/well (medium: 10% FBS in RPMI 1640 (GIBCO), incubation temperature: 37° C.). The reverse transfection was conducted using lipofectamine RNAi max (invitrogen). The reverse transfection was conducted by pre-incubating 10˜20 uM of siRNA diluted in opti-MEM (Gibco) and lipofectamine RNAi max diluted in opti-MEM (Gibco) at room temperature for 15 minutes, and then mixing with 5000 cells/well of the incubated cells, to allow reverse transfection. 24 hours after, the prepared cells were treated with L3-1Y/IgG2. […] The number of the cells was counted through luminescence signal, and the luminescence signal was recorded using Envision 2104 Multi-label Reader (Perkin Elmer). […]

[3] = test system: Ls174T cells; experiment: Cell proliferation (CellTiter Glo) in Ls174T colon cancer cells; assay type: cell-based; conditions: L3-1Y/IgG2 0-2 μg/ml, 72 hours, FIG. 3
Excerpt: as §1, §2

[4] = test system: SW620 cells; experiment: Cell proliferation (CellTiter Glo) in SW620 colon cancer cells; assay type: cell-based; conditions: L3-1Y/IgG2 0-2 μg/ml, 72 hours, FIG. 4
Excerpt: as §1, §2

[5] = test system: LoVo cells; experiment: Cell proliferation (CellTiter Glo) in LoVo colon cancer cells; assay type: cell-based; conditions: L3-1Y/IgG2 0-2 μg/ml, 72 hours, FIG. 5
Excerpt: as §1, §2

[6] = test system: c-Myc; experiment: c-Myc expression level by western blotting in HT-29 cells; assay type: cell-based; conditions: 1 μg/ml L3-1Y/IgG2 for 24 hours, western blot, beta-actin control, FIG. 7
Protocol: To reveal the causes of acquirement of effect by co-treatment of an anti-c-Met antibody and c-Myc siRNA on colon cancer cell on which the antibody solely has no effect, the expression level of c-Myc in HT29 (ATCC, HTB-38) treated with an anti-c-Met antibody was measured.
In particular, 20000 cells of HT-29 cell was incubated in 60 mm plate (medium: 10% FBS in RPMI 1640 (GIBCO), incubation temperature: 37° C.). 24 hours after, 1 μg/ml of L3-1Y/IgG2 was treated thereto. 24 hours after, the cells were lysed using Lysis buffer (Roche), thereby obtaining proteins. The concentration of the obtained proteins was measured, and 20 ug of each protein was loaded and subjected to western blotting. The expression amount of c-Myc was detected using c-Myc antibody (Santa-Cruz). A group which is not treated with L3-1Y/IgG2 was used as a control, and the expression amount of beta-actin was used as a control of expression amount of proteins.

[7] = target: c-Met (Homo sapiens, UniProt P08581); experiment: Specificity of expressed scFv to c-Met; assay type: binding; conditions: scFv product after expression
Sequence of c-Met (P08581 25-1390): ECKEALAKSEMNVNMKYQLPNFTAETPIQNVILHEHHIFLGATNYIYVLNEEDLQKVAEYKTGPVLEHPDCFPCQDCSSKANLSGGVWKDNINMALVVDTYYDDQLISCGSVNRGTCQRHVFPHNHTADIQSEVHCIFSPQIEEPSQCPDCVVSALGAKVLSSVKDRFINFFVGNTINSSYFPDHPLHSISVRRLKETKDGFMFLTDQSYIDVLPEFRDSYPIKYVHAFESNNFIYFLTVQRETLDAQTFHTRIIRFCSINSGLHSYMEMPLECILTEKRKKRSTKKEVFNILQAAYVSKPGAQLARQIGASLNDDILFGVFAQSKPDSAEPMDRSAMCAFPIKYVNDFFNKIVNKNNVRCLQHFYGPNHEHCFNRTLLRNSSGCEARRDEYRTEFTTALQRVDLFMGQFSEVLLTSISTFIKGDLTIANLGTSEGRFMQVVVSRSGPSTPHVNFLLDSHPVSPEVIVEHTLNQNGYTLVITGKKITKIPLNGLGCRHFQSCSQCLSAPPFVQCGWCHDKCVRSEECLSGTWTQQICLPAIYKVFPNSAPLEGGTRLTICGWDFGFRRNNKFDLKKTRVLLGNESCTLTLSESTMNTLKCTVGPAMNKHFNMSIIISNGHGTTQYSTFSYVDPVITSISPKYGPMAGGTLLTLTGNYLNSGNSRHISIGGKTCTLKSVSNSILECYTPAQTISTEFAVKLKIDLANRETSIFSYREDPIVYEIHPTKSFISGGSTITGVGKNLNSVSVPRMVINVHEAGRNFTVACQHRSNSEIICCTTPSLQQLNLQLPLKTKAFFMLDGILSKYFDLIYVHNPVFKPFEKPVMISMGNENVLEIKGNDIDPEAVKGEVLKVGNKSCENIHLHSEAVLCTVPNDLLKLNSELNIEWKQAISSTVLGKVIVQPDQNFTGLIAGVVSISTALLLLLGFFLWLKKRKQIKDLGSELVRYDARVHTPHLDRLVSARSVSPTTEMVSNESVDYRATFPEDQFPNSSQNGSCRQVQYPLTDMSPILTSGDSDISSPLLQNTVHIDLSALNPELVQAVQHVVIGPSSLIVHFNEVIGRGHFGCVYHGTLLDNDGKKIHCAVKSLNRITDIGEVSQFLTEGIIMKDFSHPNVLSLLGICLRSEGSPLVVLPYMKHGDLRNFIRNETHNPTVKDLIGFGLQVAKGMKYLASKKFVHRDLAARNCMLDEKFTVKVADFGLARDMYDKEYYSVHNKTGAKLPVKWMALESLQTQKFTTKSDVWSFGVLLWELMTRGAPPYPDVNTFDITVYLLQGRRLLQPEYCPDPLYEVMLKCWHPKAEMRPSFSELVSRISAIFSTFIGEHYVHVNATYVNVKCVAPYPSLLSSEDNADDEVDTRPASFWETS
Excerpt: For use in constructing an scFv of the huAbF46 antibody from the heavy and light chain variable regions of the huAbF46 antibody, a gene was designed to have the structure of “VH-linker-VL” for each of the heavy and the light chain variable region, with the linker including the amino acid sequence “[…]” (SEQ ID NO: 54). A polynucleotide sequence (SEQ ID NO: 55) coding for the designed scFv of huAbF46 was synthesized in Bioneer and an expression vector for the polynucleotide had the nucleotide sequence of SEQ ID NO: 56.

Row | Molecule | cell proliferation inhibition effect [1] | cell proliferation inhibition effect [2] | cell proliferation inhibition effect [3] | cell proliferation inhibition effect [4] | cell proliferation inhibition effect [5] | amount of c-Myc (expression) [6] | specificity to c-Met [7]
1 | B1 | no cell proliferation inhibition effect is observed | no cell proliferation inhibition effect is observed | no cell proliferation inhibition effect is observed | no cell proliferation inhibition effect is observed | no cell proliferation inhibition effect is observed | increased amount of c-Myc | 
2 | B2 |  |  |  |  |  |  | exhibit specificity to c-Met
